Target: human monoclonal antibody BO2C11, FVIII-specific IgG4kappa inhibitory antibody against the C2 domain
Assay: cell-based or functional assay

neutralisation of BO2C11 inhibitory activity (chromogenic assay): 50 % neutralisation at 1/8 BO2C11/Fab molar ratio
B1: Fab fragments of Ab 14C12 (Fab, V domains shown)
VH: EVQLQQSGPELVKPGASVKLSCKASGYTFTSSVMHWLKQKSGQGLEWIGYINPYNDGTKYNEKFTAKATLTSDKSSSTVYMELSGLTSEDFAVYYCARSGGLLRGYWYFDVWGAGTTVTVSS
VL: DLVLTQSPATLSVTPGDSVSLSCRASQDITNTLHWYHQKSHESPRLLIKYVSQSISGIPSRFSGSGSGTVFTLSINSVETEDFGVYFCQQSTSWPYTFGGGTKLEIKR

Reference: US20060239998A1 (D COLLEN RESEARCH FOUNDATION VZW, published 2006)
